This passage reports binding result and Kd results from PMC11033526 (Journal of Biochemistry, 2023).

No end group written: not given here. *: point of attachment. Biotin = O=C1N[C@H]2[C@H](CS[C@H]2CCCCC(=O)*)N1

Test [1] addresses T1, mouse calmodulin (mouse, UniProt P0DP26 1-149).
T1 construct: also called mCaM; CaM; source: E. coli BL21 (DE3) pLysS, purified (Phenyl Sepharose)
The experiment in a line: pull-down; His-tagged ySUMO-fusion protein on Ni-NTA Superflow, ySUMO portion denatured with 6 M guanidine chloride; 0.6 μM mCaM in +Ca2+ buffer (150 mM NaCl, 0.1% Tween 20, 1 mM CaCl2, pH 7.5), 4°C, 2 h; CaM detected by western blot. Particulars: both partners purified.

The target of test [2] is T1, mouse calmodulin. The experiment in a line: SPR; Biacore 2000; biotinylated T1r peptides on a CAP chip (Biotin CAPture Kit); mCaM injected, 2-fold dilutions from 50 μM, +Ca2+ (1 mM CaCl2), 25°C, 30 μl/min; KD from equilibrium responses, 1:1 model. Conditions: both partners purified. For orientation: In SPR one partner is held on a chip, and binding of the other changes the refractive index at the surface.

B1: FLAG-ySUMO-mT1r1 CT (domain or fragment)
chain: PKCYVILCRPELNNTEHFQASIQDYTRRCGTT
notes: mouse T1r1, cytosolic C-terminal region (CT), residues 811-842; On the Ni-NTA beads the ySUMO portion was denatured with 6 M guanidine chloride before mCaM was added; also called ySUMO-fusion protein of the mT1r1 C-terminal region; source: E. coli BL21 (DE3), purified (Ni-NTA); not shown: FLAG, N-terminal, kept; ySUMO, N-terminal, kept; His8, C-terminal, kept
With B1, the binding result in test [1] was “binds”.

B2: biotin-mT1r2 CT peptide (cytosolic C-terminal region of mouse taste receptor type 1 subunit 2) (peptide)
peptide: Biotin-GGSGGSPKCYMILFYPERNTSAYFNSMIQGYTMRKS
notes: N-terminal linker segment; mouse T1r2, cytosolic C-terminal region as defined by TMHMM, residues 814-843; source: synthetic peptide (Hokkaido System Science, ~90% purity)
Usually Kd stands for the concentration at which binding is half-saturated. Read a high Kd as a looser complex. Molecule B2 gave a Kd in test [2] of 27 µM.

B3: FLAG-ySUMO-mT1r2 CT (domain or fragment)
chain: PKCYMILFYPERNTSAYFNSMIQGYTMRKS
notes: mouse T1r2, cytosolic C-terminal region (CT), residues 814-843; On the Ni-NTA beads the ySUMO portion was denatured with 6 M guanidine chloride before mCaM was added; also called ySUMO-fusion protein of the mT1r2 C-terminal region; source: E. coli BL21 (DE3), purified (Ni-NTA); not shown: FLAG, N-terminal, kept; ySUMO, N-terminal, kept; His8, C-terminal, kept
For the molecule B3, the binding result in test [1] is “binds”.
